This is an account of results in patent publication US20220396633A1 (MABPRO A S, published 2022).

This experiment addresses CA IX-positive antigen (protein extract of C-33a_CA IX cells) (human, UniProt Q16790 38-459). The experiment can be described thus: ELISA, antibody 5 ug/ml on coated protein extract of C-33a_CA IX cells versus C-33a_neo. The procedure:
To evaluate the antigen-binding specificity, all twenty-five humanized variants of CA9hu-2 were subjected to enzyme-linked immunosorbent assay (ELISA) using either CA IX-positive or CA IX-negative antigen. Antigens were prepared from stably transfected C-33a cell line expressing CA IX (C-33a_CA IX) and parental mock-transfected C-33a cells without CA IX expression (C-33a_neo).
Proteins were extracted from the cell monolayer with RIPA lysis buffer (0.1% deoxycholate, 1% Triton X-100 and protease inhibitor cocktail in PBS). Protein concentrations were determined by bicinchoninic acid assay (ThermoFisher Scientific, Waltham, Mass. USA) according to the manufacturer's instructions. Protein extracts were diluted to final concentration 0.2 mg/ml in PBS. Protein concentration of antigen samples used in screening of antigen-antibody specific interaction tested by ELISA meets the requirements for low detergent content that could otherwise interfere throughout the analysis. 50 μl of either CA IX-positive or CA IX-negative antigen was coated on the surface of microplate wells overnight at 37° C. After washing with PBS-T 0.05% Tween-20 in PBS pH7.2, 50 μl of all humanized variants of CA9hu-2 (diluted to concentration 5 μg/ml in 10% FCS in PBS-T) were added and incubated for 2 h at room temperature. Peroxidase-labeled swine anti-human IgG (diluted 1:5000 in 10% FCS in PBS-T; Sigma-Aldrich, St. Louis, Mo. USA) was used as detector. Parental IV/18 antibody (marked as “mouse Ab”) as well as chimeric HC0LC0 antibody (having the murine variable domains and the human Ig constant domains) were used as reference samples. Results are expressed as a fold of induction and are calculated as O.D. values of absorbance measured at 492 nm from CA IX-positive antigen/O.D. values of absorbance measured at 492 nm from CA IX-negative antigen.
On the technique in general: An ELISA detects its analyte on a solid surface through an enzyme-linked reagent.

Changes are numbered by the printed parent chain.

B1: CA9hu-2_HC1LC5 (antibody, V domains shown)
VH: EVQLVESGGGLVQPGGSLKLSCAASGFTFNTNAMHWVRQASGKGLEWVGRIRSKSNNYTTYYADSVKDRFTISRDDSKNTAYLQMNSLKTEDTAVYYCVCGSWFAYWGQGTLVTVSS
VL: DIVMTQSPDSLAVSLGERATINCKSSQSLLNSSNQKNYLAWYQQKPGQPPKLLIYFTSTRQSGVPDRFSGSGSGTDFTLTISSLQAEDVAVYYCQQHYSIPLTFGQGTKLEIK
notes: Humanized variant of IV/18; VH in-frame with human IgG constant domain (allotype G1m17,1), VL in-frame with human kappa constant domain (allotype Km3)
With B1, the binding result is reported as “binds”.

B2: CA9hu-2_HC4LC2 (antibody, V domains shown)
VH: B1 VH with L11V, G16R, K19R, S41P, G49A, D76N, A81L, K89R, T90A
VL: B1 VL with Y42F, K51N, L53V, S82N, Y93F, K109Q, L110V
notes: as for B1
Consider B2, for which the binding result is on record as “binds”.

B3: CA9hu-2_HC3LC4 (antibody, V domains shown)
VH: QVQLVESGGGVVQPGGSLRLSCAASGFTFNTNAMHWVRQAPGRGLEWVARIRSKSNNYTTYYADSVKDRFTISRDNSKNTLYLQVNSLRAEDTAVYYCVCGSWFAYWGQGTLVTVSS
VL: B1 VL with Y42F, L52V, S69T
notes: as for B1
For the molecule B3, the binding result is “binds”.

B4: CA9hu-2_HC3LC3 (antibody, V domains shown)
VH: B3 VH
VL: B1 VL with V3Q, Y93F, L110V
notes: as for B1
With B4, the binding result is “binds”.

B5: CA9hu-2_HC3LC2 (antibody, V domains shown)
VH: B3 VH
VL: B1 VL with Y42F, K51N, L53V, S82N, Y93F, K109Q, L110V
notes: as for B1
Turning to B5, the binding result is “binds”.

B6: CA9hu-2_HC3LC1 (antibody, V domains shown)
VH: B3 VH
VL: B1 VL with I2V, A19V, P49S
notes: as for B1
Regarding B6, the binding result was “binds”.

B7: CA9hu-2_HC4LC3 (antibody, V domains shown)
VH: B3 VH with Q1E, G16R, R43K, V85M
VL: B1 VL with V3Q, Y93F, L110V
notes: as for B1
With B7, the binding result was “binds”.

B8: CA9hu-2_HC5LC3 (antibody, V domains shown)
VH: B1 VH with L112T
VL: B1 VL with V3Q, Y93F, L110V
notes: as for B1
For the molecule B8, the binding result is “binds”.

B9: CA9hu-2_HC3LC5 (antibody, V domains shown)
VH: B3 VH
VL: B1 VL
notes: as for B1
Regarding B9, the binding result is given as “binds”.

B10: CA9hu-2_HC5LC2 (antibody, V domains shown)
VH: B1 VH with L112T
VL: B1 VL with Y42F, K51N, L53V, S82N, Y93F, K109Q, L110V
notes: as for B1
Regarding B10, the binding result was “binds”.

B11: CA9hu-2_HC2LC5 (antibody, V domains shown)
VH: B1 VH with N79S
VL: B1 VL
notes: as for B1
As for B11, the binding result is recorded as “binds”.

B12: CA9hu-2_HC2LC3 (antibody, V domains shown)
VH: B1 VH with N79S
VL: B1 VL with V3Q, Y93F, L110V
notes: as for B1
Regarding B12, the binding result is given as “binds”.

B13: CA9hu-2_HC5LC1 (antibody, V domains shown)
VH: B1 VH with L112T
VL: B1 VL with I2V, A19V, P49S
notes: as for B1
As to B13, the binding result is “binds”.

B14: CA9hu-2_HC1LC1 (antibody, V domains shown)
VH: B1 VH
VL: B1 VL with I2V, A19V, P49S
notes: as for B1
For B14, the binding result was “binds”.

B15: CA9hu-2_HC1LC2 (antibody, V domains shown)
VH: B1 VH
VL: B1 VL with Y42F, K51N, L53V, S82N, Y93F, K109Q, L110V
notes: as for B1
B15: the binding result was “binds”.

B16: CA9hu-2_HC5LC4 (antibody, V domains shown)
VH: B1 VH with L112T
VL: B1 VL with Y42F, L52V, S69T
notes: as for B1
In the case of B16, the binding result is “binds”.

B17: CA9hu-2_HC1LC3 (antibody, V domains shown)
VH: B1 VH
VL: B1 VL with V3Q, Y93F, L110V
notes: as for B1
As for B17, the binding result was “binds”.

B18: CA9hu-2_HC2LC1 (antibody, V domains shown)
VH: B1 VH with N79S
VL: B1 VL with I2V, A19V, P49S
notes: as for B1
B18: the binding result is on record as “binds”.

B19: CA9hu-2_HC1LC4 (antibody, V domains shown)
VH: B1 VH
VL: B1 VL with Y42F, L52V, S69T
notes: as for B1
Consider B19, for which the binding result is on record as “binds”.

B20: CA9hu-2_HC5LC5 (antibody, V domains shown)
VH: B1 VH with L112T
VL: B1 VL
notes: as for B1
Regarding B20, the binding result was “binds”.

B21: CA9hu-2_HC4LC4 (antibody, V domains shown)
VH: B3 VH with Q1E, G16R, R43K, V85M
VL: B1 VL with Y42F, L52V, S69T
notes: as for B1
On to B21, for which the binding result is listed as “binds”.

B22: CA9hu-2_HC4LC1 (antibody, V domains shown)
VH: B3 VH with Q1E, G16R, R43K, V85M
VL: B1 VL with I2V, A19V, P49S
notes: as for B1
For the molecule B22, the binding result is on record as “binds”.

B23: CA9hu-2_HC2LC4 (antibody, V domains shown)
VH: B1 VH with N79S
VL: B1 VL with Y42F, L52V, S69T
notes: as for B1
As for B23, the binding result is given as “binds”.

B24: CA9hu-2_HC2LC2 (antibody, V domains shown)
VH: B1 VH with N79S
VL: B1 VL with Y42F, K51N, L53V, S82N, Y93F, K109Q, L110V
notes: as for B1
As to B24, the binding result is reported as “binds”.
